Results taken from US20200338209A1, “ANTI-B7-H3 ANTIBODIES AND ANTIBODY DRUG CONJUGATES” (AbbVie Inc., priority 2016, published 2020).
Residue numbers refer to the chain shown, from its start.

T1: human B7-H3 (4Ig-B7-H3 variant) (Homo sapiens, UniProt Q5ZPR3)
T1 construct: His tag (6xHis) (C)
T1 sequence (Q5ZPR3 with tags, fused parts or gaps): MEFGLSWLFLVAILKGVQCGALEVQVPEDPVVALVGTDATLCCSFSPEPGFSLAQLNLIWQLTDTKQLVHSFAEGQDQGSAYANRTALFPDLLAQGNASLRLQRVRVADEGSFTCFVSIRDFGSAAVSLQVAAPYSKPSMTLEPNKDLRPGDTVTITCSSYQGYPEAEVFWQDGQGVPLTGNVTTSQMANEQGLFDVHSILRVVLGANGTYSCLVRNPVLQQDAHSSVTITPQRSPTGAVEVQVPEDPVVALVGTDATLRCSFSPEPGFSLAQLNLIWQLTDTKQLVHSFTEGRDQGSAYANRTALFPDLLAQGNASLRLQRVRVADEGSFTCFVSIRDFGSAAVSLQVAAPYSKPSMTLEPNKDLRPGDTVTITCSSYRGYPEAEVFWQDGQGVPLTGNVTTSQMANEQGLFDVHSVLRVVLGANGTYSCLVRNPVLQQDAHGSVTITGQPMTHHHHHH

B1: Ab16: mouse hybridoma derived anti-B7-H3 monoclonal antibodies (mAbs) (antibody, V domains shown)
VH: EVKLLESGGGLVQPGGSLKLSCAASGFDFSRYWMSWVRQAPGKGLEWIGEINPDSSTINYTPSLKDKFIISRDNAKNTLYLQMSKVRSEDTALYYCARPGFGNYIYAMDYWGQGTSVTVSS
VL: DIQMTQTTSSLSASLGDRVTINCRASQDISNFLNWYQQKPDGTVKLLIYYTSRLYLGVPSRFSGSGSGTDYSLTISNLEQEDIATYFCQQGNTLPPTFGGGTKLEIK
B2: Ab10: mouse hybridoma derived anti-B7-H3 monoclonal antibodies (mAbs) (antibody, V domains shown)
VH: DVQLQESGPGLVKPSQSLSLTCTVTGYSITSDYAWNWIRQFPGNRLEWMGHINYSGITNYNPSLKSRISITRDTSKNQFFLQLYSVTTEDTATYFCARRSLFYYYGSSLYAMDYWGQGTSVTVSS
VL: DVVMTQSPFSLPVSLGDQASISCRSSQSLVHSNGNTYLHWYLQKPGQSPKLLIYKVSNRFSGVPDRFSGSGSGTDFTLKISRVEAEDLGVYFCSQSTHVPWTFGGGTKLEIK
B3: Ab2: mouse hybridoma derived anti-B7-H3 monoclonal antibodies (mAbs) (antibody, V domains shown)
VH: QVQLQQPGAELVKPGASVKLSCKASGYTFTSYWMHWVKQRPGQGLEWIGMIHPDSGTTNYNEKFRSKATLTVDKSSSTAYMQLSSLTSEDSAVYYCAVYYGSTYWYFDVWGTGTTVTVSS
VL: B2 VL with S7T, F9L, S20Y, S32I, L42R, V99F, W101F, G105S
B4: Ab3: murine anti-B7-H3 mAbs; mouse hybridoma derived (antibody, V domains shown)
VH: QVQLQQPGAELVKPGASVKLSCKASGYTFSSYWMHWVKQRPGQGLEWIGLIHPDSGSTNYNEMFKNKATLTVDRSSSTAYVQLSSLTSEDSAVYFCAGGGRLYFDYWGQGTTLTVSS
VL: B2 VL with S7T, F9L, N35D, H39R, S81T, W101Y
B5: Ab8: murine anti-B7-H3 mAbs; mouse hybridoma derived (antibody, V domains shown)
VH: EVKLVESGGGLVKPGGSLKLSCAASGFTFSSYGMSWVRQTPEKRLEWVATISGGGNYTYCPDSVKGRFTISRDNAKNNLYLQMSSLRSEDTALYYCTRQRGYDYHYAMDFWGQGTSVTVSS
VL: DIQMTQSPASLSVSVGETVTITCRASENIYSNLAWHQQKQGKSPQLLVYAATNLADGVPSRFSGNGSDTQYSLKINSLQSEDFGSYFCQNFWGTSWTFGGGTKLEIK
B6: Ab4: murine anti-B7-H3 mAbs; mouse hybridoma derived (antibody, V domains shown)
VH: QVQLQQPGAELVKPGASVKLSCKASGYSFTSYWMHWVKQRPGQGLEWIGMIHPNSGSNNYNEKFKSKATLTVDKSSNTAYMQLSSLTSEDSAVYYCARRLGLHFDYWGQGTTLTVSS
VL: DIVMTQSQKFMSTPVGDRVSITCKASQNVGTAVAWYQQKPGQSPKLLIYSASNRYTGVPDRFTGSGSGTDFTLTISNMQSEDLADYFCQQYSSYPYTFGGGTKLEIK
B7: Ab18: the murine monoclonal Ab18 (antibody, V domains shown)
VH: QVQLQQSAAELARPGASVKMSCKASGYSFTSYTIHWVKQRPGQGLEWIGYINPNSRNTDYNQKFKDETTLTADRSSSTAYMQLISLTSEDSAVYYCARYSGSTPYWYFDVWGAGTTVTVSS
VL: QIVLTQSPAILSASPGEKVTMTCRASSSVSYMNWYQQKPGSSPKPWIYATSNLASGVPARFSVSVSGTSHSLTISRVEAEDAATYYCQQWSSNPLTFGAGTKLELK
B8: Ab12: murine anti-B7-H3 mAbs; mouse hybridoma derived (antibody, V domains shown)
VH: EVQLVESGGGLVKPGGSLKLSCAASGFTFSSYAMSWVRQTPEKRLEWVATISSGTNYTYYPDSVKGRFTISRDNAKNTLYLQMTSLRSEDTAMYYCARQGRYSWIAYWGQGTLVTVSA
VL: DIVLTQSPASLAVSLGQRATISCRASKSVSTSDYSYMHWNQQKPGQPPKLLIYLASNLESGVPARFSGSGSGTDFTLNIHPVEEEDAATYYCQHSRELLTFGAGTKLELK
B9: Ab11: murine anti-B7-H3 mAbs; mouse hybridoma derived (antibody, V domains shown)
VH: EVKLVESGGGLVQPGGSLRLSCATSGFTFTNYYMSWVRQPPGKALEWLGFIRNKANDYTTEYSASVKGRFTISRDNSQSILYLQMNTLRAEDSATYYCARESPGNPFAYWGQGTLVTVSA
VL: DIVMTQSPSSLTVTAGEKVTMTCKSSQSLLNSGTQKNFLTWYQQKPGQPPKLLIYWASTRESGVPDRFTGSGSGTDFTLTISSVQAEDLAVYFCQNDYIYPLTFGAGTKLELK
B10: Ab13: mouse hybridoma derived anti-B7-H3 monoclonal antibodies (mAbs) (antibody, V domains shown)
VH: DVQLQESGPDLVKPSQSLSLTCTVTGYSITSGYSWHWIRQFPGNKLEWMGYIHSSGSTNYNPSLKSRISINRDTSKNQFFLQLNSVTTEDTATYYCAGYDDYFEYWGQGTTLTVSS
VL: DIVMTQSQKFMSTSVGDRVSVTCKASQNVGFNVAWYQQKPGQSPKALIYSASYRYSGVPDRFTGSGSGTDFTLTISNVQSEDLAEYFCQQYNSYPFTFGSGTKLEIK
B11: Ab5: murine anti-B7-H3 mAbs; mouse hybridoma derived (antibody, V domains shown)
VH: QVQLQQPGDELVKPGASVKLSCKTSGYTFTTDWMHWVKQRPGQGLEWIGMIHPNSGTTNYNEKFKSKAALTVDKSSSTACMQLSSLTSEDSAVYYCARSYWKWYFDVWGTGTTVTVSS
VL: QIVLTQSPAIMSASLGEEITLTCSASSSVSYMHWYQQKSGTSPKLLIYSTSNLASGVPSRFSGSGSGTFYSLTISSVEAEDSADYYCHQWTSYMYTFGGGTKLEIK
B12: Ab14: mouse hybridoma derived anti-B7-H3 monoclonal antibodies (mAbs) (antibody, V domains shown)
VH: EVKLVESGGGLVKPGGSLKLSCAASGFTFSSYGMSWVRQTPEKRLEWVATISGGGTNTYYPDSVEGRFTISRDNAKNFLYLQMSSLRSEDTALYYCARHYGSQTMDYWGQGTSVTVSS
VL: DIQMTQSPASLSASVGETVTITCRTSGNIHNYLTWYQQKQGKSPQLLVYNAKTLADGVPSRFSGSGSGTQFSLKINSLQPEDFGSYYCQHFWSIMWTFGGGTKLEIK

What follows are molecules tested against T1, human B7-H3 (4Ig-B7-H3 variant) (assay: Biacore T200 SPR binding kinetics, mAb capture, soluble ECD of human B7-H3). Conditions: 1:1 binding model.
Description: (§1) The binding affinity of the purified anti-B7-H3 monoclonal antibodies was determined by surface […]. […] The binding kinetics were derived from SPR measurements using a Biacore T200 instrument and a mAb capture approach (as described in the materials and methods below).
(§2) Biacore T200 SPR instruments were used to measure the binding kinetics of human B7-H3 (4Ig-B7-H3 variant) (analyte) binding to various mAbs (ligands). The assay format was Fc-based capture via immobilized anti-mouse (Fc) (Pierce 31170) or immobilized anti-human (Fc) (Pierce 31125). A standard amine coupling protocol was employed to immobilize the capture reagents via primary amines to the carboxy-methyl (CM) dextran surface of CM5 sensorchips (Biacore); capture antibodies were coupled to a level of approximately 5000RU. For binding kinetic measurements the assay buffer was HBS-EP+ (Biacore): 10 mM Hepes, pH7.4, 150 mM NaCl, 3 mM EDTA, 0.05% polysorbate 20. During the assay, all measurements were referenced against the capture surface alone. Each assay cycle consisted of the following steps: 1) Capture of ligand to approximately 50RU; 2) Analyte injection over both reference and test surface, 240 μL at 80 μL/min, after which the dissociation was monitored for 900 seconds at 80 μL/min; 3) Regeneration of capture surface with low pH glycine. For kinetic determinations analyte injections were 3-point, 9-fold dilution series of 900 nM, 100 nM and 11.11 nM, buffer only injections were included for secondary referencing. Data were processed and fit to a 1:1 binding model using Biacore T200 Evaluation Software to determine the binding kinetic rate constants, ka (on-rate) and kd (off-rate), and the equilibrium dissociation constant (affinity, KD).

ka (1/Ms) huB7-H3 [M⁻¹ s⁻¹] | kd (1/s) huB7-H3 [s⁻¹] | Molecule
140000 | 0.0032 | B1
41000 | 0.00019 | B2
120000 | 0.0029 | B3
520000 | 0.01 | B4
58000 | 9.9e-05 | B5
690000 | 0.0011 | B6
210000 | 3.6e-05 | B7
38000 | 0.00025 | B8
20000 | 0.00089 | B9
330000 | 0.0058 | B10
1.3e+06 | 0.012 | B11
110000 | 0.0014 | B12

The molecules below were run on cyno B7-H3 (assay: Biacore T200 SPR binding kinetics, mAb capture, soluble ECD of cyno B7-H3). Conditions: 1:1 binding model.
Parameters: species or system cynomolgus monkey
Description: [The source words this procedure for another species and reports this species under the same test.] as §1, §2

Chain of cyno B7-H3 (as listed by the source): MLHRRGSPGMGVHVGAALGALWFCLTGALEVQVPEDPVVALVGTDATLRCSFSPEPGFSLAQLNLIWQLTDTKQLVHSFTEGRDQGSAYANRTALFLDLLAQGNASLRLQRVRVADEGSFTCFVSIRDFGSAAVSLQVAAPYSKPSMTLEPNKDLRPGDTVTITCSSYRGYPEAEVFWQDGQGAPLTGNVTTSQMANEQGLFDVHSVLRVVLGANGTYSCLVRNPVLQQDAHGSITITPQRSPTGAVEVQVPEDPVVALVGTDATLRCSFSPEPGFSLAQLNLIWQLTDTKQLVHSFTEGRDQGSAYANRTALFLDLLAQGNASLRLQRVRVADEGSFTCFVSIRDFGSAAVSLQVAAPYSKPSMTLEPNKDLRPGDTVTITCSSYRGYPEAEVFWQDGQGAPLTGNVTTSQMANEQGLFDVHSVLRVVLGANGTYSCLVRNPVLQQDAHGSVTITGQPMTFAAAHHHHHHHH

ka (1/Ms) cynoB7-H3 [M⁻¹ s⁻¹] | kd (1/s) cynoB7-H3 [s⁻¹] | Molecule
750000 | 0.0056 | B1
200000 | 0.0042 | B2
230000 | 0.011 | B3
380000 | 0.01 | B4
160000 | 0.00026 | B5
540000 | 0.00096 | B6
240000 | 2.9e-05 | B7
55000 | 1e-05 | B8
27000 | 7.2e-05 | B9
440000 | 0.0037 | B10
1.4e+06 | 0.28 | B11
690000 | 0.003 | B12
